The supplement of paper PMC10567573

B1: DVL3 (parent)
chain: FPELGYSYGGGSASSQHSEGSRSS
B2: PRKX (parent)
chain: KLLVVDRTRRLGNMKNGANDVKHH
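Also: lentivirally expressed fusions sorted by FACS into six bins by GFP to DsRed ratio, PSI derived from sequencing read proportions per bin multiplied by bin number.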

Variants of: B1
Assay: protein stability index of a GFP-peptide fusion (GPS, HEK-293T) (PSI 1-6); higher = more stable
Details: c terminus: a fixed tail appended
Work on FPELGQSYGGGSASSQHSEGSRSS [Y6Q] yielded a protein stability index of 4.3. With FPELGGSYGGGSASSQHSEGSRSS [Y6G] the protein stability index was 3.81. Variant FPEIGYSYGGGSASSQHSEGSRSS [L4I] has a protein stability index of 3.25. FPEWGYSYGGGSASSQHSEGSRSS [L4W] gave a protein stability index of 1.76. For FPEHGYSYGGGSASSQHSEGSRSS [L4H], the protein stability index was 3.33. With FPALGYSYGGGSASSQHSEGSRSS [E3A] the protein stability index was 3.43. With FPKLGYSYGGGSASSQHSEGSRSS [E3K] the protein stability index was 2.62. Variant FPNLGYSYGGGSASSQHSEGSRSS [E3N] has a protein stability index of 2.63. FPYLGYSYGGGSASSQHSEGSRSS [E3Y] gave a protein stability index of 2.61. Work on FPSLGYSYGGGSASSQHSEGSRSS [E3S] yielded a protein stability index of 1.59. Work on FPELGYSYGGGSASSQHSEGSRPS [S23P] yielded a protein stability index of 3.23. FPELGYSYGGPSASSQHSEGSRSS [G11P] gave a protein stability index of 2.9. For FPELGYSYGGRSASSQHSEGSRSS [G11R], the protein stability index was 3.5. Work on FPELGYSYGGGRASSQHSEGSRSS [S12R] yielded a protein stability index of 2.91. For FPELGYSYGGGQASSQHSEGSRSS [S12Q], the protein stability index was 3.12. In the case of FPELGYSYGGGLASSQHSEGSRSS [S12L], the protein stability index is reported as 2.81. For FPELGYSNGGGSASSQHSEGSRSS [Y8N], the protein stability index was 4.09. In the case of FPELGYSIGGGSASSQHSEGSRSS [Y8I], the protein stability index is reported as 2.58. Variant FPELGYSQGGGSASSQHSEGSRSS [Y8Q] has a protein stability index of 4.06. For FPELGYSTGGGSASSQHSEGSRSS [Y8T], the protein stability index was 3.7. Variant FPELGYSYGGGSASSQHSEHSRSS [G20H] has a protein stability index of 2.9. FPELGYSYGGGSASSQSSEGSRSS [H17S] showed a protein stability index of 2.8. With FPELGYSYGGGSASSQASEGSRSS [H17A] the protein stability index was 3.12. FPELGYSYGGGSASSQFSEGSRSS [H17F] showed a protein stability index of 2.77. For FPELGYSYGGGSASSQWSEGSRSS [H17W], the protein stability index was 2.77. For FPELGYSYGGGSAFSQHSEGSRSS [S14F], the protein stability index was 2.16. In the case of FPELGYSYGGGSAVSQHSEGSRSS [S14V], the protein stability index is reported as 2.96. For FPELGYSYGGGSANSQHSEGSRSS [S14N], the protein stability index was 2.87. Variant FPELGYSYGGGSAISQHSEGSRSS [S14I] has a protein stability index of 2.9. For FPELGYSYGGGSASSQHREGSRSS [S18R], the protein stability index was 2.97. For FPELGYSYGGGSASSQHIEGSRSS [S18I], the protein stability index was 2.73. With FPELGYSYGGGSASSQHEEGSRSS [S18E] the protein stability index was 3.5. For FPELGYSYGGGSASSQHMEGSRSS [S18M], the protein stability index was 2.76. Work on FPELGYAYGGGSASSQHSEGSRSS [S7A] yielded a protein stability index of 2.12. FPELGYYYGGGSASSQHSEGSRSS [S7Y] gave a protein stability index of 2.19. For FPELGYTYGGGSASSQHSEGSRSS [S7T], the protein stability index was 2.36. FPELGYNYGGGSASSQHSEGSRSS [S7N] showed a protein stability index of 3.55. FPELGYDYGGGSASSQHSEGSRSS [S7D] showed a protein stability index of 4.89. Variant FPELGYSYGRGSASSQHSEGSRSS [G10R] has a protein stability index of 2.74. For FPELGYSYGSGSASSQHSEGSRSS [G10S], the protein stability index was 3.45. Work on FPELGYSYGFGSASSQHSEGSRSS [G10F] yielded a protein stability index of 2.22. Work on FPELGYSYGNGSASSQHSEGSRSS [G10N] yielded a protein stability index of 3.55. FYELGYSYGGGSASSQHSEGSRSS [P2Y] gave a protein stability index of 3.1. For FCELGYSYGGGSASSQHSEGSRSS [P2C], the protein stability index was 1.99. Variant FSELGYSYGGGSASSQHSEGSRSS [P2S] has a protein stability index of 3.34. In the case of FPELGYSYGGGSASSQHSEGERSS [S21E], the protein stability index is reported as 3. For FPELGYSYGGGSASSQHSEGARSS [S21A], the protein stability index was 2.94. Variant FPELGYSYGGGSASSQHSKGSRSS [E19K] has a protein stability index of 2.89. With FPELGYSYNGGSASSQHSEGSRSS [G9N] the protein stability index was 3.77. FPELGYSYGGGSASVQHSEGSRSS [S15V] showed a protein stability index of 3.2. Variant FPELGYSYGGGSASNQHSEGSRSS [S15N] has a protein stability index of 3.38. Work on FPELGYSYGGGSASSQHSEGSRSP [S24P] yielded a protein stability index of 3.93. Work on FPELGYSYGGGSASSQHSEGSRSN [S24N] yielded a protein stability index of 3.56. For FPELGYSYGGGSASSQHSEGSRSW [S24W], the protein stability index was 1.95. Work on FPELGYSYGGGSASSQHSEGSDSS [R22D] yielded a protein stability index of 3.42. EPELGYSYGGGSASSQHSEGSRSS [F1E] showed a protein stability index of 5.18. QPELGYSYGGGSASSQHSEGSRSS [F1Q] showed a protein stability index of 5.03. FPELLYSYGGGSASSQHSEGSRSS [G5L] showed a protein stability index of 3.18. For FPELNYSYGGGSASSQHSEGSRSS [G5N], the protein stability index was 3.96. In the case of FPELHYSYGGGSASSQHSEGSRSS [G5H], the protein stability index is reported as 3.08.

Variants of: B2
Assay: as above
Details: c terminus: a fixed tail appended
For KLLVVDRTRRLGNMKNGANDVLHH [K22L], the protein stability index was 2.97. KLLVVDRTRRLGNMKNGANDVEHH [K22E] showed a protein stability index of 3.58. KLLVVDRTRRLGNMKNGANDVDHH [K22D] gave a protein stability index of 3.42. KILVVDRTRRLGNMKNGANDVKHH [L2I] showed a protein stability index of 2.99. Variant KSLVVDRTRRLGNMKNGANDVKHH [L2S] has a protein stability index of 4.13. For KNLVVDRTRRLGNMKNGANDVKHH [L2N], the protein stability index was 4.03. KQLVVDRTRRLGNMKNGANDVKHH [L2Q] gave a protein stability index of 4.39. In the case of KALVVDRTRRLGNMKNGANDVKHH [L2A], the protein stability index is reported as 3.84. KMLVVDRTRRLGNMKNGANDVKHH [L2M] gave a protein stability index of 3.5. KRLVVDRTRRLGNMKNGANDVKHH [L2R] gave a protein stability index of 3.69. Variant KLLVVDRTRRLGNMKNGANDVKTH [H23T] has a protein stability index of 3.18. In the case of KLLVVDRTRRLGNMKNGANDVKRH [H23R], the protein stability index is reported as 2.44. Work on KLLVVDRTRRLGNMKNGANDVKSH [H23S] yielded a protein stability index of 2.73. For KLLVVDRTRRLGNMWNGANDVKHH [K15W], the protein stability index was 2.48. KLLVVDRTRRLGNMNNGANDVKHH [K15N] showed a protein stability index of 2.95. In the case of KLLVVDRTRRLGNMYNGANDVKHH [K15Y], the protein stability index is reported as 2.68. With KLLVVDRTRRLGNMPNGANDVKHH [K15P] the protein stability index was 2.9. Variant KLLVVDRTRRLGNMKNGANDWKHH [V21W] has a protein stability index of 2.62. In the case of KLLVVDRTRRLGNMKNGANDNKHH [V21N], the protein stability index is reported as 3.74. With KLLVVDRTRRLGNMKNGANDYKHH [V21Y] the protein stability index was 2.34. KLLVVDRTRRLGNMKNGANDGKHH [V21G] gave a protein stability index of 3.47. Work on KLLVVDRTRRLGNMKNGANDAKHH [V21A] yielded a protein stability index of 3.5. Work on KLYVVDRTRRLGNMKNGANDVKHH [L3Y] yielded a protein stability index of 2.69. In the case of KLFVVDRTRRLGNMKNGANDVKHH [L3F], the protein stability index is reported as 2.72. In the case of KLTVVDRTRRLGNMKNGANDVKHH [L3T], the protein stability index is reported as 4.16. Variant KLVVVDRTRRLGNMKNGANDVKHH [L3V] has a protein stability index of 2.86. Work on KLLVVDRTRRLGNMKNGRNDVKHH [A18R] yielded a protein stability index of 2.97. Variant KLLVVDRTRRLGNMKNGLNDVKHH [A18L] has a protein stability index of 2.7. For KLLVVDRTRRLGNMKNGFNDVKHH [A18F], the protein stability index was 2.53. For KLLVVDRTRRLGNMKNGYNDVKHH [A18Y], the protein stability index was 2.29. KLLVVDRTRRLGNMKLGANDVKHH [N16L] gave a protein stability index of 2.69. Work on KLLVVDRTRRLGNMKQGANDVKHH [N16Q] yielded a protein stability index of 3.25. For KLLVVDRTRRLGNMKEGANDVKHH [N16E], the protein stability index was 3.18. In the case of KLLVVDRTRRLGNMKHGANDVKHH [N16H], the protein stability index is reported as 2.85.
